For one molecule, Kd, reduction in affinity and App. KD ratio w/o CSF:w/ CSF results are on record in US20140255415A1 (Novartis, published 2014).

The target of test [1] is human LINGO-1 expressed on CHO-K1 cells (CHO-K1-hLINGO-1) (human) (UniProt Q96FE5). Put plainly: apparent KD, FACS saturation binding on CHO-K1-hLINGO-1 cells, IgG4 format.
Test [2] concerns the target T1, human LINGO-2 expressed on CHO-K1 cells (CHO-K1-hLINGO-2) (human, UniProt Q7L985 26-606).
T1 construct: range 26-606; not shown: 2 amino acid residue linker
T1 sequence (looked up): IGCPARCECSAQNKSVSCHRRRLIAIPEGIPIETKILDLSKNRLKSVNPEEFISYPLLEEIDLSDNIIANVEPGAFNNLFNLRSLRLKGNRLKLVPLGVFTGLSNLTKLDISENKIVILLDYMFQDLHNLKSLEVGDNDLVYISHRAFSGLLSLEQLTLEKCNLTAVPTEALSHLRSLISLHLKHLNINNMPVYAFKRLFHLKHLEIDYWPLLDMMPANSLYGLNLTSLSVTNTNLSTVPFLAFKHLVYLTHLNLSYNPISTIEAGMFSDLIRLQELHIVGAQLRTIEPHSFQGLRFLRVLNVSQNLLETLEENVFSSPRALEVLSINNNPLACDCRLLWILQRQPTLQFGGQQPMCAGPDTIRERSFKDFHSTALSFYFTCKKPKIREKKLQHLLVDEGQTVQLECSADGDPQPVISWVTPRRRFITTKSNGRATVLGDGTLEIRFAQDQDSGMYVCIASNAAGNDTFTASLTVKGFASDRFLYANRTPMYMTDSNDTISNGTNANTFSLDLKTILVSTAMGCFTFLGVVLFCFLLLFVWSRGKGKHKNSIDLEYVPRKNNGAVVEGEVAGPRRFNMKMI
Put plainly: apparent KD, FACS saturation binding on CHO-K1-hLINGO-2 cells, IgG4 format.

For test [3], the target named is T2, rat LINGO-1 expressed on CHO-K1 cells (CHO-K1-rLINGO-1) (rat, UniProt A0A8I5ZPI2 34-614).
T2 construct: range 34-614; not shown: 2 amino acid residue linker
T2 sequence: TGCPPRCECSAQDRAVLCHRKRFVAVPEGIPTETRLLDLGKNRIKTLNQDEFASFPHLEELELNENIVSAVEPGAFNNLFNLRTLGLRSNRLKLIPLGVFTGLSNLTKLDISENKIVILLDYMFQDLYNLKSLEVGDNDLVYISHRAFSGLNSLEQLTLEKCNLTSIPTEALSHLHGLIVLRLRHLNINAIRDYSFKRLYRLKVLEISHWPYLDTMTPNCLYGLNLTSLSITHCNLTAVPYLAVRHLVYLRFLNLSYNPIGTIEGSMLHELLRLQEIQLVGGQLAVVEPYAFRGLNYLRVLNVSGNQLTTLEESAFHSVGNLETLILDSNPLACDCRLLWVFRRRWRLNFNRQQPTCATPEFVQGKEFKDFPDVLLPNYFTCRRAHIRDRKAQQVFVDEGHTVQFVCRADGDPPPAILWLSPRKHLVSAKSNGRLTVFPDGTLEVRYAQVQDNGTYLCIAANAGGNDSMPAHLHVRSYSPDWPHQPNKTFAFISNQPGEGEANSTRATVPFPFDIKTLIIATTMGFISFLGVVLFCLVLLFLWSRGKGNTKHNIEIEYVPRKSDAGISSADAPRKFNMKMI
Put plainly: apparent KD, FACS saturation binding on CHO-K1-rLINGO-1 cells, IgG4 format. Here is the method:
(§1) Cell based affinity of anti-LINGO-1 specific antibodies is determined by FACS saturation binding experiments. The determination of the apparent KD values is carried out identical to the procedure described above using anti-LINGO-1 Fab antibodies.
(§2) In detail, CHO-K1-hLINGO-1, CHO-K1-cmLINGO-1 or CHO-K1-rLINGO-1 are detached from culture flasks by versene, washed with FACS buffer and resuspended in FACS buffer. Purified anti-LINGO-1 IgG4s are serially diluted in FACS buffer and spread into round bottom 96-well microtiter plates (NUNC™, Wiesbaden, Germany). For each concentration, duplicate wells are incubated with 1.25×10⁴ cells for 30-60 min on ice in a total volume of 100 μl. […] Using this assay the following apparent KD values can be determined (Table 3).

Test [4] deals with T3, cynomolgus monkey LINGO-1 expressed on CHO-K1 cells (CHO-K1-cmLINGO-1) (cynomolgus monkey, UniProt Q9N008 34-614).
T3 construct: range 34-614; also called Cynomolgus LINGO-1; not shown: 2 amino acid residue linker
T3 sequence (looked up): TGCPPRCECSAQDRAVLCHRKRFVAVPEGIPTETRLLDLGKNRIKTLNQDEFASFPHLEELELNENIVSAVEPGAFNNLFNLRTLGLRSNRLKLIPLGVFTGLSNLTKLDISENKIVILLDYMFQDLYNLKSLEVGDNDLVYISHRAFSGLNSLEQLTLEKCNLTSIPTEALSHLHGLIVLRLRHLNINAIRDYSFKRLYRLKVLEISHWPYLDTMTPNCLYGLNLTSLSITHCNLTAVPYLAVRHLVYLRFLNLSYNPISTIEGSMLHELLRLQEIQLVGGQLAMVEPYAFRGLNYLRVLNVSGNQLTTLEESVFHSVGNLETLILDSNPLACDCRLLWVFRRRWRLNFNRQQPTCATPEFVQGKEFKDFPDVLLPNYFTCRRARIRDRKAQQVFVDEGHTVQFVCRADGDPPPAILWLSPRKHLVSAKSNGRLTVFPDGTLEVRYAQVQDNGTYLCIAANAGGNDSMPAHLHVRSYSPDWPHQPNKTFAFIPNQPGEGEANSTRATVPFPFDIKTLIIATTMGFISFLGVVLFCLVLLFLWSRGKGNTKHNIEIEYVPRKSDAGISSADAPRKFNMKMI
The experiment in a line: apparent KD, FACS saturation binding on CHO-K1-cmLINGO-1 cells, IgG4 format. Here is the method: as §1, §2

In test [5] the target is human LINGO-1 expressed on CHO-K1 cells (CHO-K1-hLINGO-1) (human) (UniProt Q96FE5). The experiment in a line: FACS saturation binding on CHO-K1-hLINGO-1 cells, IgG4, with 50% human CSF against control.
Test [6] has the same target. The experiment in a line: apparent KD, FACS saturation binding on CHO-K1-hLINGO-1 cells, IgG4 pre-incubated in FACS buffer.
The target is the same in test [7]. Put plainly: apparent KD, FACS saturation binding on CHO-K1-hLINGO-1 cells, IgG4, with 50% human cerebro-spinal fluid.
Test [8] shares this target. Put plainly: apparent KD, FACS saturation binding on CHO-K1-hLINGO-1 cells, IgG4 pre-incubated in FACS buffer + 2.6% BSA.
Test [9] has the same target. The experiment in a line: ratio of apparent KDs, FACS saturation binding on CHO-K1-hLINGO-1 cells, IgG4, without against with 50% human CSF.
Test [10] shares this target. The experiment in a line: apparent KD, FACS saturation binding on CHO-K1-hLINGO-1 cells, IgG4 pre-incubated in FACS buffer + 50% human serum.
Test [11] shares this target. The experiment in a line: apparent KD, FACS saturation binding on CHO-K1-hLINGO-1 cells, IgG4, without 50% human cerebro-spinal fluid (control).

B1: anti-LINGO-1 IgG4 antibody 4784 (antibody, V domains shown)
VH: QVQLKESGPALVKPTQTLTLTCTFSGFSLSSSGVGVGWIRQPPGKALEWLAHIGSDDDKYYSTSLKTRLTISKDTSKNQVVLTMTNMDPVDTATYYCARNQQYGDGYPGYFDYWGQGTLVTVSS
VL: DIELTQPPSVSVAPGQTARISCSGDNIGNYYVYWYQQKPGQAPVLVIYEDTNRPSGIPERFSGSNSGNTATLTISGTQAEDEADYYCQSYDNLHEQVFGGGTKLTVLG
Regarding B1, the Kd is 0.29 nM in [1]; 25.9 nM in [2]; 0.98 nM in test [3]; 0.62 nM in test [4]; 0.28 nM in [6]; 1.57 nM in test [7]. In addition, the Kd turned out to be 0.19 nM in test [8], 0.27 nM in [10] and 0.43 nM in test [11]. In [5], this molecule gave a reduction in affinity of 73%. For the same molecule, the App. KD ratio w/o CSF:w/ CSF in test [9] is 0.27.
